Experiments:
[1] = molecular target: human CD19 antigen on the surface of B lymphoma cells (Raji, Daudi, IM-9, Namalwa) (human) (UniProt P15391); assay: flow cytometry on Raji cells; control antibody at 0.556 µg/ml
[2] = molecular target: human CD19 antigen on the surface of B lymphoma cells (Raji, Daudi, IM-9, Namalwa) (human) (UniProt P15391); assay: flow cytometry on Raji cells; control antibody at 1.667 µg/ml
[3] = molecular target: human CD19 antigen on the surface of B lymphoma cells (Raji, Daudi, IM-9, Namalwa) (human) (UniProt P15391); assay: flow cytometry on Raji cells; control antibody at 0.185 µg/ml
[4] = molecular target: human CD19 antigen on the surface of B lymphoma cells (Raji, Daudi, IM-9, Namalwa) (human) (UniProt P15391); assay: flow cytometry on Raji cells; control antibody at 5 µg/ml
[5] = molecular target: human CD3 (CD3ε molecule) on the surface of Jurkat T cells (human) (UniProt P07766); assay: cell-based or functional assay
[6] = molecular target: human CD3 (CD3ε molecule) on the surface of Jurkat T cells (human) (UniProt P07766); assay: flow cytometry on Jurkat cells
[7] = molecular target: human CD19 antigen on the surface of B lymphoma cells (Raji, Daudi, IM-9, Namalwa) (human) (UniProt P15391); assay: flow cytometry on Raji cells; control antibody at 15 µg/ml
[8] = molecular target: human CD19 antigen on the surface of B lymphoma cells (Raji, Daudi, IM-9, Namalwa) (human) (UniProt P15391); assay: cell-based or functional assay

| Substance | average fluorescence value [1] | average fluorescence value [2] | average fluorescence value [3] | average fluorescence value [4] | ED50 of CD69 expression (Mean FL2-A) on Jurkat E6-1 cells co-cultured with Raji cells (10:1) [5] [ng/mL] | EC50 [6] [nM] | average fluorescence value [7] | ED50 of killing of Daudi cells by human PBMC (Fluo 3-AM release) [8] [ng/mL] | ED50 of killing of Namalwa cells by human PBMC (Fluo 3-AM release) [8] [ng/mL] | ED50 of killing of Raji cells by human PBMC (Fluo 3-AM release) [8] [ng/mL] |
| --- | --- | --- | --- | --- | --- | --- | --- | --- | --- | --- |
| OKT3 monoclonal antibody (mouse anti-human CD3 monoclonal antibody) | 3390 | 3570 | 3860 | 3460 | 1280 | 6.09 | 3710 |  |  |  |
| BLI-193 (tandem single chain antibody structure, blinatumomab) (bispecific antibody) |  |  |  |  |  |  |  | 2.57 | 0.107 | 0.0868 |
